Experiment [1] has as its target T1, human TIGIT on cells (Jurkat-hTIGIT, human primary T cells) (human, UniProt Q495A1 22-244).
T1 construct: whole, on cells; The cell type is named in each row's assay; also called membrane expressed human TIGIT
T1 sequence (looked up): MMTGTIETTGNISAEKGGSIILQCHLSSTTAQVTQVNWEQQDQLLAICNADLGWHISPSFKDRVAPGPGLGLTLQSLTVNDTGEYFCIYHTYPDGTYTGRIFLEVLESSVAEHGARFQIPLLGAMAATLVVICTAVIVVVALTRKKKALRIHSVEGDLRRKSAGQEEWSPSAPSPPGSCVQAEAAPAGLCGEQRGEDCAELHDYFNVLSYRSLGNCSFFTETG
Put plainly: flow cytometry on Jurkat-hTIGIT, 100 nM antibody, vs untransfected Jurkat. The method, then: (§1) Antibodies were incubated with the cells for 20 min at 4° C. in FACS buffer. […] Geometric mean fluorecence intensity was analysed using LSR BD Fortessa. Cell binding was recorded as the median florescence intensity of PE on the transfected line compared to the un-transfected line for each antibody (Table 3).

Experiment [2] has as its target T2, mouse TIGIT on cells (Jurkat-mTIGIT) (mouse, UniProt P86176 29-249).
T2 sequence (looked up): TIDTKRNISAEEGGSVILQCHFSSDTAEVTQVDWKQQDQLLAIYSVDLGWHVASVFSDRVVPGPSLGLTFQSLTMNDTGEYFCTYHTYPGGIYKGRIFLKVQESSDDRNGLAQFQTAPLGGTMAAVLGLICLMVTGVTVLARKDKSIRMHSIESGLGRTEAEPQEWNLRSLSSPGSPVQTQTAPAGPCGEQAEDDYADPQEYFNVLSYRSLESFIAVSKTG
The experiment can be described thus: cell-based or functional assay.

Experiment [3] addresses T1, human TIGIT on cells (Jurkat-hTIGIT, …). The experiment can be described thus: cell-based or functional assay.
Experiment [4] has as its target T2, mouse TIGIT on cells (Jurkat-mTIGIT). Put plainly: flow cytometry on Jurkat-mTIGIT, 100 nM antibody, vs untransfected Jurkat. The method, then: as §1
For orientation: In flow cytometry, cells or beads pass a laser one at a time.

For experiment [5], the target named is T1, human TIGIT on cells (Jurkat-hTIGIT, …). Put plainly: cell-based or functional assay. This is another data set of the same source.
The target is the same in experiment [6]. Put plainly: cell-based or functional assay. The source holds these as a separate data set.
Experiment [7] has the same target. Put plainly: flow cytometry on Jurkat-hTIGIT, no 31282.
For experiment [8], the target named is T3, anti-idiotypic antibody clone 32869.
T3 construct: Human IgG1 from HEK293, selected from the HuCAL library
The experiment can be described thus: MSD electrochemiluminescence bridging ELISA: anti-idiotypic antibody 32869 coated on the plate, clone 31282 spiked in human serum, detection with Sulfo-TAG 32869. The source says:
The ELISA assay is based on the Meso Scale Discovery (MSD) Platform using electrochemiluminescence detection technology. […] A voltage is applied to the plate electrodes, causing the bound Sulfo-TAG to emit light via electrochemical stimulation.
A general note: In an ELISA, binding on a coated surface is turned into a signal by an enzyme label.

T3 sequence (VH, as listed by the source, chain 1 of 2): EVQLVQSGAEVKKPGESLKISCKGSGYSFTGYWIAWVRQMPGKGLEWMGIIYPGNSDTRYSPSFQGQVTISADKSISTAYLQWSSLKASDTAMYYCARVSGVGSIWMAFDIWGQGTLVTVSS
T3 sequence (VL, as listed by the source, chain 2 of 2): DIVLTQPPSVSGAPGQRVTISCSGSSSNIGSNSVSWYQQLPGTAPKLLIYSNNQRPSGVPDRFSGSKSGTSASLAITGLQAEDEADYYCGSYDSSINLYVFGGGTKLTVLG

B1: anti-TIGIT antibody clone 26493 (antibody, V domains shown)
VH: EVQLVESGGGLVQPGRSLRLSCAASGFTFGDYAMHWVRQAPGKGLEWVSGITWNSGSIGYADSVKGRFTISRDNAKNSLYLQMNSLRAEDTALYYCAKPVPKSRGLDVWGQGTMVTVSS
VL: DIQLTQSPSSVSASVGDRVTITCRASQGISSWLAWYQQKPGKAPKLLIYGASSLQSGVPSRFSGSGSGTDFTLTISSLQPEDFATYYCQQAFYLPWTFGGGTKVEIK
notes: Naive parent clone, VH3-09; human IgG; Fab for 'Fab KD' columns; mouse IgG2a/IgG1 versions only used in vivo / ex vivo; also called surrogate anti-TIGIT antagonistic antibody
For B1, the figures for the “Cell binding FON (Fold Over Negative)” value in experiment [1] and in experiment [4] were 80 fold over negative and 463 fold over negative, respectively. Moreover, in experiment [2], the “IFNg production by mouse OT-1 CD8+ T cells co-cultured with OVA-pulsed PanO2 cells, 133 nM antibody” value is approximately 2 fold. In experiment [3], the “luciferase induction over isotype control (fold change), Jurkat-hTIGIT + CHO-TCR-CD155 bioassay, 133 nM antibody” value was determined as 0.96 fold.

B2: comparative anti-TIGIT antibody 31C6 (MEB125.31C6.A1.205 VH4/VL1) (antibody, human IgG1, V domains shown)
VH: EVQLVQSGAEVKKPGASVKVSCKASGYTFSSYVMHWVRQAPGQGLEWIGYIDPYNDGAKYAQKFQGRVTLTSDKSTSTVYMELSSLRSEDTAVYYCARGGPYGWYFDVWGQGTTVTVSS
VL: DIQMTQSPSSLSASVGDRVTITCRASEHIYSYLSWYQQKPGKAPKLLIYNAKTLAEGVPSRFSGSGSGTDFTLTISSLQPEDFATYYCQHHFGSPLTFGQGTRLEIK
B2: in experiment [5], the “EC50 (nM), luciferase, Jurkat-hTIGIT + CHO-CD155” value was found to be 5.3 nM and the “luciferase induction over isotype control (fold change), Jurkat-hTIGIT + CHO-CD155” value was found to be 6.7 fold. Further, in experiment [6], the “EC50 (nM), IFNg, human primary CD8+ T cells + CHO-CD155” value stood at 0.3 nM and the “IFNg induction over isotype control (fold change), human primary CD8+ T cells + CHO-CD155” value is 1.6 fold.

B3: anti-TIGIT antibody clone 32959 (antibody, human IgG1, V domains shown)
VH: QVQLVQSGAEVKKPGSSVKVSCKASGGTFSSYLISWVRQAPGQGLEWMGGIYPIFATANYAQKFQGRVTITADESTSTAYMELSSLRSEDTAVYYCAREAQSYRVPFDIWGQGTMVTVSS
VL: EIVMTQSPATLSVSPGERATLSCRASQSVSSNLAWYQQKPGQAPRLLIYGASTRATGIPARFSGSGSGTEFTLTISSLQSEDFAVYYCQQYAIWPPFTFGGGTKVEIK
modifications: AF647 dye coupled to the antibody in Examples 24 and 36; the site is not stated and the letters do not carry it.
notes: human IgG1 from HEK cells
For B3, the “Cell binding Jurkat Human TIGIT FON (Fold Over Negative)” value in experiment [7] amounted to 588 fold over negative.

B4: anti-TIGIT antibody clone 31282 (antibody, V domains shown)
VH: QVQLVQSGAEVKKPGASVKVSCKASGYTFTSYYMHWVRQAPGQGLEWMGVIGPSGASTSYAQKFQGRVTLTRDTSTSTVYMELSSLRSEDTAVYYCARDHSDYWSGIMEVWGQGTTVTVSS
VL: EIVLTQSPGTLSLSPGERATLSCRASQSVRSSYLAWYQQKPGQAPRLLIYGASSRATGIPDRFSGSGSGTDFTLTISRLEPEDFAVYYCQQYFSPPWTFGGGTKVEIK
Take B4: the binding result in experiment [8] is listed as “binds”.

B5: comparative anti-TIGIT antibody 22G2 (antibody, human IgG1, V domains shown)
VH: QVHLQESGPGLVKPSETLSLTCTVSGGSVSSGIYYWSWIRQPPGKGLEWIGYIYYSGSTNYNPSLKSRVTISVDTSKNQFSLKLSSVTAADTAVYYCARDYYVSGNYYNVDYYFFGVDVWGQGTTVTVSS
VL: EIVLTQSPATLSLSPGERATLSCRASQSVSSYLAWYQQKPGQAPRLLIYDASNRATGIPARFSGSGSGTDFTLTISSLEPEDFAVYYCQQRSNWPPLFTFGPGTKVDIK
B5: in experiment [5], the “EC50 (nM), luciferase, Jurkat-hTIGIT + CHO-CD155” value was determined as 5.2 nM and the “luciferase induction over isotype control (fold change), Jurkat-hTIGIT + CHO-CD155” value came out at 5.3 fold. In addition, in experiment [6], the “EC50 (nM), IFNg, human primary CD8+ T cells + CHO-CD155” value was 0.41 nM and the “IFNg induction over isotype control (fold change), human primary CD8+ T cells + CHO-CD155” value stood at 1.5 fold.

Source of the values: patent US20220306733A1 (ITEOS BELGUIM, published 2022).
